The values below come from the supplement of paper PMC11865577.

Test in all cases: pull-down binding Z-score (relative to library population); higher = stronger binding
Details in all cases: RNA library: Library-2

For data set [1], the system named is TO-N3-2 (biotin conjugate). In short, it runs like this: (§1)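 Streptavidin beads with 100 pmol of biotin-conjugated small molecule were incubated for 60 min at 25 °C with 1 μg of heat-folded Cy5- or Cy3-end-labelled RNA library in phosphate/NaCl/KCl buffer. Bound RNA was eluted in hot SDS after three washes and hybridised to a DNA barcode microarray at 55.5 °C for 20 h. Each binding score is a library-referenced Z-score, computed after beads-only subtraction and a trimmed mean of barcoded replicate probes.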

A further data set relates to TO-N3 (biotin conjugate). In short, it runs like this:
as §1

Data set [2] has as its system TO-3-N3 (biotin conjugate). In short, it runs like this:
as §1

Data set [3] deals with TO-3-N3-2 (biotin conjugate). In short, it runs like this:
as §1

Consider AUGGUAAGUGCGAUACUUACCUG [U1snRNP5ss-24], for which the “pull-down binding Z-score” value in data set [1] is 0.974; in the data set with TO-N3 (biotin conjugate) it was -0.213; in data set [2] it was -0.32; in data set [3], -0.139.

Regarding “UCUAUACAGAACUGGA [SHAPE_invivo_SARS-CoV-2_Motif_242]”, the “pull-down binding Z-score” value in data set [1] was -0.496; in the data set with TO-N3 (biotin conjugate) it was 0.79; in data set [2], 1.18; in data set [3] it was -0.0262.

For GACAUGUUCCUCGGAACUUGUC, the “pull-down binding Z-score” value was -0.965 in data set [1], -1.35 in the data set with TO-N3 (biotin conjugate), -0.926 in data set [2] and -0.631 in data set [3].

With “GUCUCCUACUAAAUUAAAUGAUCUCUGCUUUACUAAUGUCUAUGCAGAUUCAUUUGUAAUUAGAGGUGAU”, the “pull-down binding Z-score” value is -0.628 in data set [1], -0.922 in the data set on TO-N3 (biotin conjugate), -0.707 in data set [2] and -0.285 in data set [3].

In the case of “GCUGUUUAAUAGGGGCUGAACAUGUCAACAACUCAUAUGAGUGUGACAUACCCAUUGGUGCAGGUAUAUGCGCUAGUUAUCAGACUCAGACUAAUUCUCCUCGGC”, the “pull-down binding Z-score” value in data set [1] is -0.00417; in the data set with TO-N3 (biotin conjugate), 0.298; in data set [2], -0.351; in data set [3] it was 0.183.

On to “GCUAAAGAUACUACUGAAGCCUUUGAAAAAAUGGUUUCACUACUUUCUGUUUUGC [SHAPE_invitro_SARS-CoV-2_Motif_217]”, for which the “pull-down binding Z-score” value in data set [1] is -0.245; with TO-N3 (biotin conjugate), 0.166; in data set [2], 0.0938; in data set [3], 0.0624.

For the sequence AUAUAACUUCUAAAGAAACUUUGUAU, the “pull-down binding Z-score” value in data set [1] is -1.1; in the data set with TO-N3 (biotin conjugate), -1.28; in data set [2] it was -0.911; in data set [3], -0.347.

For the sequence “CUUAUGUUGGUUGCCAUAACAAGUGUGCCUAUUGGGUUCCACGUGCUAGCGCUAACAUAGG”, the “pull-down binding Z-score” value is -0.75 in data set [1], -1.11 with TO-N3 (biotin conjugate), -1.06 in data set [2] and -0.751 in data set [3].

Take UGCUAACUAAGGGCA: the “pull-down binding Z-score” value in data set [1] is -0.388; in the data set on TO-N3 (biotin conjugate), 0.627; in data set [2], 0.877; in data set [3] it was -0.0827.

Regarding “GUUCUUGUAUGUGAGAAC [IAV_invivo_PA_3_Motif_23+IAV_invivo_PA_3_Motif_23]”, the “pull-down binding Z-score” value in data set [1] is -1.09; with TO-N3 (biotin conjugate), -0.949; in data set [2] it was -0.598; in data set [3], -0.614.

With UGUGGUAAACAAGCUACA, the “pull-down binding Z-score” value in data set [1] is -0.906; in the data set with TO-N3 (biotin conjugate), -0.766; in data set [2], -0.644; in data set [3], -0.468.

As for “UGUUGGCAUCAUUCUAUUGGAUUUGAUUACGUCUAUAAUCCGUUUAUGAUUGAUGUUCAACA”, the “pull-down binding Z-score” value in data set [1] is -0.625; in the data set with TO-N3 (biotin conjugate), -0.712; in data set [2], -0.515; in data set [3] it was -0.183.

For the sequence “CACUCAAAGGCGGUGCACCAACAAAGGUUACUUUUGGUGAUGACACUGUGAUAGAAGUG [DMSMaPseq_invitro_SARS-CoV-2_Motif_50]”, the “pull-down binding Z-score” value in data set [1] is -0.0256; with TO-N3 (biotin conjugate) it was -0.234; in data set [2], -0.531; in data set [3], -0.205.

In the case of GGUUAUAAGAAACC, the “pull-down binding Z-score” value in data set [1] was -0.964; with TO-N3 (biotin conjugate) it was -0.351; in data set [2] it was -0.083; in data set [3], -0.849.

With “CGGUUGCUUGGUCAGCAAGUGCAUGUCAUGAUGGCAUGGGCUGGCUAACAAUCG [IAV_invivo_NA_6_Motif_7+IAV_invivo_NA_6_Motif_7]”, the “pull-down binding Z-score” value is -0.222 in data set [1], -0.939 in the data set on TO-N3 (biotin conjugate), -0.929 in data set [2] and -0.69 in data set [3].

Regarding “AUGCAUUCUGCAU [SHAPE_invivo_SARS-CoV-2_Motif_273]”, the “pull-down binding Z-score” value in data set [1] was -1.32; in the data set on TO-N3 (biotin conjugate) it was -0.142; in data set [2], -0.0791; in data set [3], -0.638.

Consider “GUUCAGAGUUUAUUCUAGUGCGAAUAAUUGCACUUUUGAAUAUGUCUCUCAGC”, for which the “pull-down binding Z-score” value in data set [1] is -0.426; with TO-N3 (biotin conjugate), -0.295; in data set [2], -0.177; in data set [3] it was 0.063.

In the case of CAACGGUACUAUUACCGUUG, the “pull-down binding Z-score” value in data set [1] is -1.59; in the data set with TO-N3 (biotin conjugate) it was -0.553; in data set [2], -0.275; in data set [3], -0.426.

In the case of “UUAAUGGAGUCACAUUAA [DMSMaPseq_invitro_SARS-CoV-2_Motif_357]”, the “pull-down binding Z-score” value in data set [1] is -1; in the data set with TO-N3 (biotin conjugate), 0.273; in data set [2], 0.485; in data set [3], -0.347.

For the sequence “CCUAAUGGAUGG [IAV_invivo_NA_6_Motif_15+IAV_invivo_NA_6_Motif_15]”, the “pull-down binding Z-score” value in data set [1] is -0.501; with TO-N3 (biotin conjugate) it was -0.777; in data set [2], -0.555; in data set [3] it was -0.746.

Regarding “UGUACAUACAGCUAAUAAAUGGGAUCUCAUUAUUAGUGAUAUGUACG [DMSMaPseq_invitro_SARS-CoV-2_Motif_370]”, the “pull-down binding Z-score” value in data set [1] is -0.223; in the data set with TO-N3 (biotin conjugate), -0.461; in data set [2] it was -0.362; in data set [3], -0.188.

On to “GGGAAGGCGAAAGACC [IAV_invivo_PA_3_Motif_21+IAV_invivo_PA_3_Motif_21]”, for which the “pull-down binding Z-score” value in data set [1] was 1.12; in the data set on TO-N3 (biotin conjugate), 0.603; in data set [2], 0.143; in data set [3] it was 0.289.

On to “GGCUGUAGUUGUGAUCAACUCCGCGAACCCAUGCUUCAGUCAGCUGAUGCACAAUCGUUUUUAAACGGGUUUGCGGUGUAAGUGCAGCC [DMSMaPseq_invitro_SARS-CoV-2_Motif_241]”, for which the “pull-down binding Z-score” value in data set [1] is 0.388; with TO-N3 (biotin conjugate) it was -0.133; in data set [2], -0.355; in data set [3], -0.0355.

On to “GGAGAGUGUUCAGACAUUCUUU [SHAPE_invitro_SARS-CoV-2_Motif_44]”, for which the “pull-down binding Z-score” value in data set [1] was -0.602; in the data set with TO-N3 (biotin conjugate), -0.508; in data set [2], -0.535; in data set [3] it was -0.361.

As to AGUGUUUGCCUAGGUUCUUUAAUCUACUCAACCGCU, the “pull-down binding Z-score” value in data set [1] is -0.432; in the data set on TO-N3 (biotin conjugate), -0.288; in data set [2], -0.346; in data set [3], -0.219.

In the case of GCGCGGCCAGAAACUGGCGGCGC [mismatch-GG], the “pull-down binding Z-score” value in data set [1] was -0.598; in the data set on TO-N3 (biotin conjugate), -0.309; in data set [2] it was -0.0922; in data set [3], -0.302.

UGACAUUACACCAUGUUCUUUUGGUGGUGUCA: the “pull-down binding Z-score” value in data set [1] is -1.47; with TO-N3 (biotin conjugate) it was -1.29; in data set [2] it was -0.87; in data set [3], -0.423.

Turning to UAGAGGUACAACAGUACUUUUA, the “pull-down binding Z-score” value was -1.28 in data set [1], -1.12 in the data set with TO-N3 (biotin conjugate), -0.813 in data set [2] and -0.423 in data set [3].

With AUGCCAACUAUUUUCUUUGCUGGCAU, the “pull-down binding Z-score” value in data set [1] is -1.13; in the data set on TO-N3 (biotin conjugate) it was -1.36; in data set [2] it was -0.81; in data set [3] it was -0.637.

For the sequence “CACGUCCAACUCAGUUUGCCUGUUUUACAGGUUCGCGACGUG”, the “pull-down binding Z-score” value is 0.192 in data set [1], 0.0672 with TO-N3 (biotin conjugate), 0.0988 in data set [2] and -0.0582 in data set [3].

As for “GAAAAGAACAAUCAAGGGUACACACCACUGGUUGUUACUCACAAUUUUGACUUCACUUUUAGUUUUAGUCCAGAGUACUCAAUGGUCUUUGUUCUUUUU”, the “pull-down binding Z-score” value was 0.0117 in data set [1], -0.121 in the data set with TO-N3 (biotin conjugate), -0.824 in data set [2] and -0.0313 in data set [3].

In the case of “CUAUAGUAGCUGGUGGUAUUGUAGCUAUCGUAG [SHAPE_invitro_SARS-CoV-2_Motif_182]”, the “pull-down binding Z-score” value was found to be 1.04 in data set [1], 0.874 in the data set on TO-N3 (biotin conjugate), 0.653 in data set [2] and 0.54 in data set [3].

For CAUCAACCAUAUGUAGUUGAUG, the “pull-down binding Z-score” value is -1.15 in data set [1], -0.872 in the data set with TO-N3 (biotin conjugate), -0.47 in data set [2] and -0.283 in data set [3].

Take “CUUAGUUUUAAG [DMSMaPseq_invitro_SARS-CoV-2_Motif_263]”: the “pull-down binding Z-score” value was -1.26 in data set [1], -1.02 with TO-N3 (biotin conjugate), -0.781 in data set [2] and -0.268 in data set [3].

With GCUCUACAAGAUGCUUAUUACAGAGC, the “pull-down binding Z-score” value in data set [1] is -0.0957; in the data set with TO-N3 (biotin conjugate), 1.52; in data set [2], 1.83; in data set [3] it was 0.467.
